Reference: article PMC9482650, “Quantitative fragmentomics allow affinity mapping of interactomes” (Nature Communications, 2022)

T1: SYNJ2BP, P57105
T1 sequence (P57105 8-110, limits assumed, looked up): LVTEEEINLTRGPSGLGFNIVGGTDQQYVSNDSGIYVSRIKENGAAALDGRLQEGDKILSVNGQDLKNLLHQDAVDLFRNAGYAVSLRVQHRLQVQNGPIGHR

T2: APBA1_1, Q02410
T2 sequence (Q02410 651-752, limits assumed, looked up): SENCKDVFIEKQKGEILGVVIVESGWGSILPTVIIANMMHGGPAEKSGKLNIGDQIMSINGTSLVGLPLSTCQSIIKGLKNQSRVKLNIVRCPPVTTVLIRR

T3: APBA1_2, Q02410
T3 sequence (Q02410 742-832, limits assumed, looked up): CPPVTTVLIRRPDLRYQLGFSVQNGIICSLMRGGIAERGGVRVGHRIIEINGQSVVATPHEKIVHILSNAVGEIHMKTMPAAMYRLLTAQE

T4: DLG3_2, Q92796
T4 sequence (Q92796 221-321, limits assumed, looked up): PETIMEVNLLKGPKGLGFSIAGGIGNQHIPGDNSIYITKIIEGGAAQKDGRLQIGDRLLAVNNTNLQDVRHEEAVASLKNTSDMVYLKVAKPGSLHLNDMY

T5: GRIP1_5, Q9Y3R0
T5 sequence (Q9Y3R0 568-668, limits assumed, looked up): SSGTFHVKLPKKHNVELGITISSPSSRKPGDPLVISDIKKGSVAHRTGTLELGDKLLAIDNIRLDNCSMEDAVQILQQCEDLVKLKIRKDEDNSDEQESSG

T6: MPP2, Q14168
T6 sequence (Q14168 180-250, limits assumed, looked up): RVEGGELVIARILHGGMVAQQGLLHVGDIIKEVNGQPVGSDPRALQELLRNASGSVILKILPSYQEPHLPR

T7: RHPN1, Q8TCX5
T7 sequence (Q8TCX5 508-602, limits assumed, looked up): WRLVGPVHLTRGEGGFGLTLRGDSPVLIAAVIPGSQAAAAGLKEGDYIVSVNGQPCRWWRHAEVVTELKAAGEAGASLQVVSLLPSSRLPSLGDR

T8: GRIP1_3, Q9Y3R0
T8 sequence (Q9Y3R0 247-346, limits assumed, looked up): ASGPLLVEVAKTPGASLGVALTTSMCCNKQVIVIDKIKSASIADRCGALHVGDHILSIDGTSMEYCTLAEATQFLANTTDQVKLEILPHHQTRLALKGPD

T9: NHERF3_3, Q5T2W1
T9 sequence (Q5T2W1 238-333, limits assumed, looked up): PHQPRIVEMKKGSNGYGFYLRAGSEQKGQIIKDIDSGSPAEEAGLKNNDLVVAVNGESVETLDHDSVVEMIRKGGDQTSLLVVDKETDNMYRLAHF

T10: NHERF3_1, Q5T2W1
T10 sequence (Q5T2W1 4-100, limits assumed, looked up): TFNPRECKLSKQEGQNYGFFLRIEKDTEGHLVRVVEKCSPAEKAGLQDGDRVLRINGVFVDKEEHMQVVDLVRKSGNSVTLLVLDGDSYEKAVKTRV

T11: LNX2_2, Q8N448
T11 sequence (Q8N448 334-432, limits assumed, looked up): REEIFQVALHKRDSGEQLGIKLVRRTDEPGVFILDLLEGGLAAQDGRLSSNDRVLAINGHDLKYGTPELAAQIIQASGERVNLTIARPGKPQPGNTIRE

T12: APBA2_1, Q99767
T12 sequence (Q99767 563-664, limits assumed, looked up): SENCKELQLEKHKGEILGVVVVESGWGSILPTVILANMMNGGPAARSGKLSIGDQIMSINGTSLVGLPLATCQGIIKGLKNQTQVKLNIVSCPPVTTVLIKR

B1: SLC22A11, Q9NSA0 (peptide)
chain: EAVTVESTSL
B2: IGSF5, Q9NSI5 (peptide)
chain: PEKVSNTTVV

Molecular target: T1, SYNJ2BP, P57105
Assay: holdup assay
Design: key: below the threshold = too weak to quantify, mostly under pKd 3.1 to 4
Conditions: plain residues with an end cap or a label only (N-terminal biotin on a linker: ado-ado)

Binder | pKd
B1 | 4.15
B2 | 3.51

Molecular target: Inadl_8, Q8NI35
Assay: holdup assay
Design: key: below the threshold = too weak to quantify, mostly under pKd 3.1 to 4
Conditions: plain residues with an end cap or a label only (N-terminal biotin on a linker: ado-ado)

Sequence of Inadl_8, Q8NI35 (Q8NI35 1425-1530): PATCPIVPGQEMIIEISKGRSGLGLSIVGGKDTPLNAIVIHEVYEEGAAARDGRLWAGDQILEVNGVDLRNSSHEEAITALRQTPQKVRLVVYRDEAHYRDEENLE

Binder | pKd
B1 | below the threshold
B2 | below the threshold

Molecular target: T2, APBA1_1, Q02410
Assay: holdup assay
Design: key: below the threshold = too weak to quantify, mostly under pKd 3.1 to 4
Conditions: plain residues with an end cap or a label only (N-terminal biotin on a linker: ado-ado)

Binder | pKd
B1 | below the threshold
B2 | below the threshold

Molecular target: PICK1, Q9NRD5
Assay: holdup assay
Design: key: below the threshold = too weak to quantify, mostly under pKd 3.1 to 4
Conditions: plain residues with an end cap or a label only (N-terminal biotin on a linker: ado-ado)

Sequence of PICK1, Q9NRD5 (Q9NRD5 17-115): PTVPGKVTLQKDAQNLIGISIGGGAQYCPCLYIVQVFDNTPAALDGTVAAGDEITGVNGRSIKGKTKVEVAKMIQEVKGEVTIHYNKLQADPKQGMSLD

Binder | pKd
B1 | below the threshold
B2 | 4.15

Molecular target: GRID2IP_2, A4D2P6
Assay: holdup assay
Design: key: below the threshold = too weak to quantify, mostly under pKd 3.1 to 4
Conditions: plain residues with an end cap or a label only (N-terminal biotin on a linker: ado-ado)

Sequence of GRID2IP_2, A4D2P6 (A4D2P6 272-370): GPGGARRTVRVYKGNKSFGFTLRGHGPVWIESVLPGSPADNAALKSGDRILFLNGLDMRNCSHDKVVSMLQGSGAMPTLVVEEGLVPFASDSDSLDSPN

Binder | pKd
B1 | 5.32
B2 | below the threshold

Molecular target: GRIP2_4, Q9C0E4
Assay: holdup assay
Design: key: below the threshold = too weak to quantify, mostly under pKd 3.1 to 4
Conditions: plain residues with an end cap or a label only (N-terminal biotin on a linker: ado-ado)

Sequence of GRIP2_4, Q9C0E4 (Q9C0E4 446-548): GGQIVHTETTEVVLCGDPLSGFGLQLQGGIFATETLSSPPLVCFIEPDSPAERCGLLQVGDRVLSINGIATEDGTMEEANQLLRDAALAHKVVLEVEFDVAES

Binder | pKd
B1 | below the threshold
B2 | below the threshold

Molecular target: MAGI1_1, Q96QZ7
Assay: holdup assay
Design: key: below the threshold = too weak to quantify, mostly under pKd 3.1 to 4
Conditions: plain residues with an end cap or a label only (N-terminal biotin on a linker: ado-ado)

Sequence of MAGI1_1, Q96QZ7 (Q96QZ7 1-106): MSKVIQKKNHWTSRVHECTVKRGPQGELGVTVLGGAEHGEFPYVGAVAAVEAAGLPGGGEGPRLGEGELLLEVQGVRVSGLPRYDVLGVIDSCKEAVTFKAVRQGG

Binder | pKd
B1 | below the threshold
B2 | below the threshold

Molecular target: FRMPD3, Q5JV73
Assay: holdup assay
Design: key: below the threshold = too weak to quantify, mostly under pKd 3.1 to 4
Conditions: plain residues with an end cap or a label only (N-terminal biotin on a linker: ado-ado)

Sequence of FRMPD3, Q5JV73 (Q5JV73 12-100): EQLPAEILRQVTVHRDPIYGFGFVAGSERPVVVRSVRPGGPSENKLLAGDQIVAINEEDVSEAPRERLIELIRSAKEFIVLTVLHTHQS

Binder | pKd
B1 | below the threshold
B2 | below the threshold

Molecular target: GRIP2_5, Q9C0E4
Assay: holdup assay
Design: key: below the threshold = too weak to quantify, mostly under pKd 3.1 to 4
Conditions: plain residues with an end cap or a label only (N-terminal biotin on a linker: ado-ado)

Sequence of GRIP2_5, Q9C0E4 (Q9C0E4 544-642): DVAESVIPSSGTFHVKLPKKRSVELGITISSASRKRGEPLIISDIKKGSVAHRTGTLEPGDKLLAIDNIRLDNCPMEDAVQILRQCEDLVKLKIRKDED

Binder | pKd
B1 | below the threshold
B2 | below the threshold

Molecular target: PDLIM1, O00151
Assay: holdup assay
Design: key: below the threshold = too weak to quantify, mostly under pKd 3.1 to 4
Conditions: plain residues with an end cap or a label only (N-terminal biotin on a linker: ado-ado)

Sequence of PDLIM1, O00151 (O00151 1-87): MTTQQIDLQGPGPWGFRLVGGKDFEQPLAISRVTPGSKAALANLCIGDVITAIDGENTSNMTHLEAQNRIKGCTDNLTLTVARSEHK

Binder | pKd
B1 | 3.71
B2 | below the threshold

Molecular target: T3, APBA1_2, Q02410
Assay: holdup assay
Design: key: below the threshold = too weak to quantify, mostly under pKd 3.1 to 4
Conditions: plain residues with an end cap or a label only (N-terminal biotin on a linker: ado-ado)

Binder | pKd
B1 | 3.86
B2 | 3.51

Molecular target: NOS1, P29475
Assay: holdup assay
Design: key: below the threshold = too weak to quantify, mostly under pKd 3.1 to 4
Conditions: plain residues with an end cap or a label only (N-terminal biotin on a linker: ado-ado)

Sequence of NOS1, P29475 (P29475 9-101): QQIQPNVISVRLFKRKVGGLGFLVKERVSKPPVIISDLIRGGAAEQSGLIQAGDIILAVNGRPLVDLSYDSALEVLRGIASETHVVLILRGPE

Binder | pKd
B1 | 3.5
B2 | 3.64

Molecular target: T4, DLG3_2, Q92796
Assay: holdup assay
Design: key: below the threshold = too weak to quantify, mostly under pKd 3.1 to 4
Conditions: plain residues with an end cap or a label only (N-terminal biotin on a linker: ado-ado)

Binder | pKd
B1 | below the threshold
B2 | 4.73

Molecular target: T5, GRIP1_5, Q9Y3R0
Assay: holdup assay
Design: key: below the threshold = too weak to quantify, mostly under pKd 3.1 to 4
Conditions: plain residues with an end cap or a label only (N-terminal biotin on a linker: ado-ado)

Binder | pKd
B1 | below the threshold
B2 | below the threshold

Molecular target: DLG4_1, P78352
Assay: holdup assay
Design: key: below the threshold = too weak to quantify, mostly under pKd 3.1 to 4
Conditions: plain residues with an end cap or a label only (N-terminal biotin on a linker: ado-ado)

Sequence of DLG4_1, P78352 (P78352 62-152): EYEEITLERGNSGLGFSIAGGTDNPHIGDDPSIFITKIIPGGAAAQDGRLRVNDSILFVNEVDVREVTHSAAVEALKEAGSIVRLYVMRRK

Binder | pKd
B1 | 3.65
B2 | 4.15

Molecular target: HTRA1, Q92743
Assay: holdup assay
Design: key: below the threshold = too weak to quantify, mostly under pKd 3.1 to 4
Conditions: plain residues with an end cap or a label only (N-terminal biotin on a linker: ado-ado)

Sequence of HTRA1, Q92743 (Q92743 360-477): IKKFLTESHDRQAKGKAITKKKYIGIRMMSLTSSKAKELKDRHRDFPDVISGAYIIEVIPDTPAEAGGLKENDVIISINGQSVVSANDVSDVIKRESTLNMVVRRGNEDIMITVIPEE

Binder | pKd
B1 | 3.92
B2 | 4.49

Molecular target: T6, MPP2, Q14168
Assay: holdup assay
Design: key: below the threshold = too weak to quantify, mostly under pKd 3.1 to 4
Conditions: plain residues with an end cap or a label only (N-terminal biotin on a linker: ado-ado)

Binder | pKd
B1 | below the threshold
B2 | below the threshold

Molecular target: T7, RHPN1, Q8TCX5
Assay: holdup assay
Design: key: below the threshold = too weak to quantify, mostly under pKd 3.1 to 4
Conditions: plain residues with an end cap or a label only (N-terminal biotin on a linker: ado-ado)

Binder | pKd
B1 | 4.86
B2 | 3.67

Molecular target: DLG2_3, Q15700
Assay: holdup assay
Design: key: below the threshold = too weak to quantify, mostly under pKd 3.1 to 4
Conditions: plain residues with an end cap or a label only (N-terminal biotin on a linker: ado-ado)

Binder | pKd
B1 | below the threshold
B2 | 3.83

Molecular target: IL16_3, Q14005
Assay: holdup assay
Design: key: below the threshold = too weak to quantify, mostly under pKd 3.1 to 4
Conditions: plain residues with an end cap or a label only (N-terminal biotin on a linker: ado-ado)

Sequence of IL16_3, Q14005 (Q14005 1107-1207): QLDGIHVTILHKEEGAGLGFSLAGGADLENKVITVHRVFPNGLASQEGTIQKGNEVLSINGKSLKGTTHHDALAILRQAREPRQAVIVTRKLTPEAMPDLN

Binder | pKd
B1 | below the threshold
B2 | below the threshold

Molecular target: T8, GRIP1_3, Q9Y3R0
Assay: holdup assay
Design: key: below the threshold = too weak to quantify, mostly under pKd 3.1 to 4
Conditions: plain residues with an end cap or a label only (N-terminal biotin on a linker: ado-ado)

Binder | pKd
B1 | below the threshold
B2 | below the threshold

Molecular target: T9, NHERF3_3, Q5T2W1
Assay: holdup assay
Design: key: below the threshold = too weak to quantify, mostly under pKd 3.1 to 4
Conditions: plain residues with an end cap or a label only (N-terminal biotin on a linker: ado-ado)

Binder | pKd
B1 | below the threshold
B2 | below the threshold

Molecular target: DLG4_2, P78352
Assay: holdup assay
Design: key: below the threshold = too weak to quantify, mostly under pKd 3.1 to 4
Conditions: plain residues with an end cap or a label only (N-terminal biotin on a linker: ado-ado)

Sequence of DLG4_2, P78352 (P78352 155-259): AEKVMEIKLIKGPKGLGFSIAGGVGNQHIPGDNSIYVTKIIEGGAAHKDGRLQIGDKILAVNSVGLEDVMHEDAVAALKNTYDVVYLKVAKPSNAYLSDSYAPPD

Binder | pKd
B1 | 3.58
B2 | 4.49

Molecular target: T10, NHERF3_1, Q5T2W1
Assay: holdup assay
Design: key: below the threshold = too weak to quantify, mostly under pKd 3.1 to 4
Conditions: plain residues with an end cap or a label only (N-terminal biotin on a linker: ado-ado)

Binder | pKd
B1 | 6.1
B2 | below the threshold

Molecular target: T11, LNX2_2, Q8N448
Assay: holdup assay
Design: key: below the threshold = too weak to quantify, mostly under pKd 3.1 to 4
Conditions: plain residues with an end cap or a label only (N-terminal biotin on a linker: ado-ado)

Binder | pKd
B1 | 3.67
B2 | 5.14

Molecular target: T12, APBA2_1, Q99767
Assay: holdup assay
Design: key: below the threshold = too weak to quantify, mostly under pKd 3.1 to 4
Conditions: plain residues with an end cap or a label only (N-terminal biotin on a linker: ado-ado)

Binder | pKd
B1 | 3.54
B2 | below the threshold
